Measured values as given in patent US20150086555A1 (THERACLONE SCIENCES, published 2015).

Target: hemagglutinin (HA) of influenza A/Japan/305/57 (H2N2) on whole virions (Influenza A virus A/Japan/305/1957(H2N2), UniProt P03451 16-562)
Assay: ELISA; BCC supernatant on coated inactivated whole virions

Binder	ELISA virus binding (OD450)
TCN-526 (5084_C17) (antibody, V domains shown) VH: EVLMVESGGGLVQPGGSVRLSCVASGFSFSSHWMTWVRQAPGKGLEWVANIEDDGGDKYYVDSVKGRFIISRDNAKNSVYLQMNSLRAEDTAVYFCARGSGSSDRSDYDPHYYYYLDVWGKGATVTVSS VL: DIQLTQSPSSLSASVGDRVTITCRASQSISRYLNWYQQKPGKAPKLLLFAASTLLDGVPSRFSGSGSGTDFTLTISSLQPEDFATYYCQRNHSPSWTFGQGTRVEIK	0.07 OD450
TCN-560 (5084_P10) (antibody, V domains shown) VH: EVQLVESGGGLVQPGGSLRLSCAASGFIFRNYWMSWVRQAPGKGLEWVANIKQDGREKYYVDSLRGRVNISRDNAENSLYLHMNSLRVEDTAVYFCARARMVVVTGDGFDVWGHGTMVTVSS VL: DIQMTQSPSSLSASVGDRVTITCRASQNIKRYFNWYQQKPGKAPKLLIYAASNLENGVPSRFSGSGSGTDFTLTISSLQPEDFATYYCQQSFSKSWTFGQGTNVDIK	2.07 OD450
TCN-555 (5246_L16) (antibody, V domains shown) VH: QVQLVQSGAEVKRPGSSVKVSCTASGGIFRKNAISWVRQAPGQGLEWMGGIIAVFNTANYAQKFQNRVKITADESGNTAYMELSSLTSDDTAVYYCASHPKYFYGSGSYPDFWGQGTLVTVSS VL: QSALTQPRSVSGSPGQSITISCTGGSSDIGASNSVSWYQQHPGKAPKLVIFDVTERPSGVPHRFSGSKSGNTASLTVSGLQPDDEADYFCCAYGGKYLVVFGGGTKVTVL	0.6 OD450
TCN-563 (5237_B21) (antibody, V domains shown) VH: QVQLAQSGAEVKRPGSSVKVSCTASGGIFRKNAISWVRQAPGQGLEWMGGIIAVFNTANYAQKFQGRVKITADESGNTAYMELSSLRSDDTAVYYCASHPKYFYGSGSYPDFWGQGTLVTVSS VL: QSALTQPRSVSGSPGQSVTISCTGSSSDVGASNSVSWYQQHPGKAPKLVIYDVTERPSGVPHRFSGSKSGNTASLTVSGLQPEDEADYFCCAYGGKYLVVFGGGTKVTVL	1.23 OD450
TCN-564 (5256_A17b) (antibody, V domains shown) VH: QVQLVQSGADVKKPGSSVTVSCKASGGSFSNYGINWVRQAPGQGLEWMGGIIPLINAPNYAPKFQGRVTITADMFSNIVSLQLTSLRTDDTAVYYCARRKMTTAIDYWGQGTLVTVSS VL: QPVLSQPPSASASLGASVTLTCTLSSGFDNYQVAWYQQRPGKGPRFVMRVGNGGNVASKGDGIPDRFSVSGSGLNRYLTIKNIQEDDESDYYCGADHGSGNNFVSPYVFGGGTKLTVL	1.1 OD450
TCN-527 (5086_C06) (antibody, V domains shown) VH: QVQLQESGPGLVKPSETLSLNCAVSGGSISNYYWSWIRQPPGKGLEWIGYISYNGRPKYNPSLTSRVTISVDTSKDQFSLELRSVTAADTALYYCARETRFGELLSPYDAFEIWGQGTMVTVSS VL: DIQMTQSPSSLSASVGDRVTMTCRASQNIRSYLNWYQQRPGTAPKLLIYAASTLHSGVPSRFSGGGSGTDFTLTINNLQPEDFASYYCQQSYDNPQTFGQGTKVEIK	1.48 OD450
TCN-528 (5087_P17) (antibody, V domains shown) VH: QVQLVQSGSEVKKPGASVKVSCKASGYTFTNYDINWIRQAPGQGLEWMGWINPNSGTTGSAQRFQGRVTITVDTSITTVYMELSSLRSDDTAIYYCARGRELLRLQHFLTDSQSERRDCFDPWGQGTLVTVSS VL: DIQMTQSPSSLSASVGDRVTITCRANQDIGIYLNWYQQNPGKVPKLLLHGASSLQGGVPSRFSASGSGTDFTLTIHSLQPEDLATYYCQQSRRLPYTFGQGTRVELK	2.82 OD450
TCN-521 (3280_D18) (antibody, V domains shown) VH: EVQLVQSGGGLVQPGGSLRLACVVSGFTVTSNYITWVRQAPGKGLEWVSVIYSHGRAYYSASVNGRFTISRHTSKNTVYLEMNSLRPEDTAVYYCAGGGLVGGYDEYFFDYWGQGTLATVSS VL: ETVLTQSPGTLSLTPGERATLSCRVGQSVSGSHLAWYQQKPGQAPRLLIYGASSRATGIPDRFGGSVSGTDFTLTISRLEPEDSAVYYCQQYGDSRYTFGQGTKLEIK	3.1 OD450
